Laboratory results taken from patent US7091311.

Molecular target: murine receptor (mouse) (UniProt Q08351)
Test: cell-based or functional assay

Chain of murine receptor (mouse) (Q08351 26-625): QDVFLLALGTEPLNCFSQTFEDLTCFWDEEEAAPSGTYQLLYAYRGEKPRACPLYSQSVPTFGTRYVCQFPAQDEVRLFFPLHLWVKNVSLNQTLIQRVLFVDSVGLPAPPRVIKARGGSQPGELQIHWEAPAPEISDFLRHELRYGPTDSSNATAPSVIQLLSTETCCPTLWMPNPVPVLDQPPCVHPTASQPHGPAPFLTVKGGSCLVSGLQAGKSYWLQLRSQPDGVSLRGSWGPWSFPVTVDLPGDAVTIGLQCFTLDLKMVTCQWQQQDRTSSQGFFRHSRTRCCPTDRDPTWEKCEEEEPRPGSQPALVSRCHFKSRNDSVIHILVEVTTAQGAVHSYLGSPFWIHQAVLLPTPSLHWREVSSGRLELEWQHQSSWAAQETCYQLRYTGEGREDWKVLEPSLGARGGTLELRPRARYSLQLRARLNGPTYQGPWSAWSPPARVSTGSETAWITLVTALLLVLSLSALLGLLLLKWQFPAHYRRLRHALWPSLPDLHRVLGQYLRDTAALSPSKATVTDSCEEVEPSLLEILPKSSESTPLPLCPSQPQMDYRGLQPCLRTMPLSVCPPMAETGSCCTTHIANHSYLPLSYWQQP

colonies of 3-5 large cells, mouse marrow in methylcellulose, 1 nM TPO #1-1: 15 colonies
colonies of 3-5 large cells, mouse marrow in methylcellulose, 1 nM TPO #1-2: 12 colonies
colonies of 3-5 large cells, mouse marrow in methylcellulose, 1 nM TPO #2-1: 16 colonies
colonies of 3-5 large cells, mouse marrow in methylcellulose, 1 nM TPO #2-2: 13 colonies
colonies of 6-12 large cells, mouse marrow in methylcellulose, 1 nM TPO #1-1: 6 colonies
colonies of 6-12 large cells, mouse marrow in methylcellulose, 1 nM TPO #1-2: 1 colonies
colonies of 6-12 large cells, mouse marrow in methylcellulose, 1 nM TPO #2-1: 8 colonies
colonies of 6-12 large cells, mouse marrow in methylcellulose, 1 nM TPO #2-2: 3 colonies
Substance: recombinant human TPO (from UniProt P40225 22-353) (ligand)
